The target of experiment [1] is T1, human SETD3 (residues 1-497) (human, UniProt Q86TU7 1-497).
T1 construct: The methods describe one recombinant human SETD3 with an N-terminal His6-tag without giving limits; Whether that protocol and tag apply to the 1-497 construct used for ITC and crystals is surmised; In ITC and in the crystals SETD3 was pre-incubated with SAH or sinefungin (SFG) at 1:10; also called SETD3_(1-497); histidine methyltransferase SETD3
T1 sequence (looked up): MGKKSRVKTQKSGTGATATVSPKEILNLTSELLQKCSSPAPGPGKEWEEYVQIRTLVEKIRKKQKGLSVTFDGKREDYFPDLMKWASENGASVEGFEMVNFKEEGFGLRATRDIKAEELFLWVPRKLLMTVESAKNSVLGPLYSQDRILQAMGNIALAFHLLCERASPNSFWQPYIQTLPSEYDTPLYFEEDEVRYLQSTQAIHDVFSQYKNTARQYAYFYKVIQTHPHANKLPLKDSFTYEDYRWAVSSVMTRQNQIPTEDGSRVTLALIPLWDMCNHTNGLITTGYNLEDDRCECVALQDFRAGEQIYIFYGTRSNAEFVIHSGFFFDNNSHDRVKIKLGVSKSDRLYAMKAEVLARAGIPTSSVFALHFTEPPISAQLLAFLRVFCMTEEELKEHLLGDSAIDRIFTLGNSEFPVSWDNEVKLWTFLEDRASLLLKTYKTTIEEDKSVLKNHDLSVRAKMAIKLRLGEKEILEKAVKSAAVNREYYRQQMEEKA
Briefly: ITC; peptide (0.5-1 mM) titrated into SETD3 (0.05 mM) pre-incubated with SAH (1:10); 25 °C; 20 mM Tris-HCl pH 8.0, 150 mM NaCl; one set of binding sites model. As to conditions: both partners purified. (In ITC the heat of successive injections is recorded.)

Experiment [2] addresses T1, human SETD3 (residues 1-497). Briefly: ITC; peptide (0.5-1 mM) titrated into SETD3 (0.05 mM) pre-incubated with sinefungin (SFG) (1:10); 25 °C; 20 mM Tris-HCl pH 8.0, 150 mM NaCl; one set of binding sites model. The following applies: both partners purified.

Ends that are not written are not given here.

One may read the Kd as the equilibrium constant for the complex coming apart. High values mean a looser complex, low ones a tighter complex.

B1: β-actin peptide, residues 66-81, with His73 (βA-His73) (peptide, UniProt P60709 66-81, looked up)
peptide: TLKYPIEHGIVTNWDD-NH2
notes: β-actin, human, 16-mer, residues 66-81; Made on Rink amide resin, so a C-terminal amide is surmised; also called wild type βA-His73; wild type β-actin peptide; source: synthetic peptide (microwave-assisted SPPS on Rink amide resin, RP-HPLC)
For the molecule B1, the Kd in experiment [1] was found to be 700 nM; in experiment [2], 1000 nM.

The values above are taken from doi:10.1101/2021.12.30.474520, “Substrate Specificity for Human Histidine Methyltransferase SETD3” (bioRxiv, 2021).
